The values that follow come from US20120219942, “Methods Employing McrA to Detect 5-Methyl Cytosine” (Brookhaven Science Associates, LLC, published 2012).

The target in series [1] is T1, McrA (rMcrA-S, C-terminal StrepII) (Escherichia coli, UniProt P24200 P24200:1-277).
T1 sequence: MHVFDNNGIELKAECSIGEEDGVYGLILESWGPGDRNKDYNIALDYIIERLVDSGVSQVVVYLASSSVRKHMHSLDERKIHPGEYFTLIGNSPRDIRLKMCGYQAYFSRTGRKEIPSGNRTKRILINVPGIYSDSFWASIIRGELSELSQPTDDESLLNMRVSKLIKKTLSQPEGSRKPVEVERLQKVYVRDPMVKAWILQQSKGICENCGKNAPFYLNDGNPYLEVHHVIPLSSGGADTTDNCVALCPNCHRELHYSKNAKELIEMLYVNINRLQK
Briefly: EMSA; NEBuffer 3, RT. The conditions noted are these: tags: C-terminal StrepII SAWSHPQFEK
Here is the method:
(§1) EMSA binding assays. Reactions (10 μl) typically contained a mixture of 10-25 pMol of various test DNAs, and 250 ng sonicated E. coli. ER2925DNA as a non-methylated, non-specific competitor in 50 mM Tris-HCl, 100 mM NaCl, 1 mM dithiothreitol, 10 mM MgCl₂ (NEBuffer #3), supplemented, with 100 μg/ml BSA. We started the reactions adding 25-175 pMol McrA-S; after 45 min at RT, the entire sample was loaded on 10% acrylamide Tris-Acetate/EDTA gel (1×TAE: 40 mM Tris-Acetate, 1 mM disodium EDTA) which was electrophoresed at RT. Thereafter, the gels were stained with ethidium bromide (0.5 μg/ml) at RT and visualized with UV light. Then, we stained the gels with Coomassie Blue to detect rMcrA-S.
On the technique in general: A gel shift assay detects complexes by their altered migration in electrophoresis.

The target of series [2] is T1, McrA (rMcrA-S, C-terminal StrepII). The series is described as follows: EMSA; T opposite m5C. The conditions noted are these: tags: C-terminal StrepII SAWSHPQFEK; mismatch T opposite m5C. Here is the method:
as §1
(§2) We next tested the ability of rMcrA-S to gel-shift ds-cassettes wherein an A, C, T, U, or I residue is placed opposite the m⁵C.

Series [3] has the same target. Briefly: EMSA; A opposite m5C. The conditions noted are these: tags: C-terminal StrepII SAWSHPQFEK; mismatch A opposite m5C. As to the method: as §1, §2
Series [4] shares this target. Briefly: EMSA; high affinity; NEBuffer 3, RT; Mg independent. The conditions noted are these: tags: C-terminal StrepII SAWSHPQFEK
As to the method: as §1

Series [5] shares this target. The series is described as follows: EMSA; hemimethylated. Particulars: tags: C-terminal StrepII SAWSHPQFEK
Here is the method:
as §1, §2

Series [6] shares this target. The series is described as follows: EMSA; U opposite m5C. Particulars: tags: C-terminal StrepII SAWSHPQFEK; mismatch U opposite m5C. As to the method: as §1, §2
Series [7] has the same target. The series is described as follows: EMSA; Ym5CGR somewhat higher affinity. The conditions noted are these: tags: C-terminal StrepII SAWSHPQFEK
As to the method:
as §1

For series [8] the target is unchanged. Briefly: EMSA; C opposite m5C. Particulars: tags: C-terminal StrepII SAWSHPQFEK; mismatch C opposite m5C. As to the method:
as §1, §2

For series [9] the target is unchanged. The series is described as follows: EMSA; NEBuffer 3, 100 mM NaCl, 10 mM MgCl2, RT. The conditions noted are these: tags: C-terminal StrepII SAWSHPQFEK
As to the method:
as §1

B1: Gm5CGG cassette (dsDNA)
DNA 1: CCCTCTGGCGGAGGAGGCTCCTGC
DNA 2: GCAGGAGCCTCCTCCGCCAGAGGG
modifications: 5mC at CpG (M.SssI), top 9, bottom 15
Regarding B1, the binding result in series [1] is recorded as “binds”.

B2: m5C/T mismatch cassette (dsDNA)
DNA 1: GCCTTCAGCGCCGGCGGATCCAGT
DNA 2: ACTGGATCCGCCTGCGCTGAAGGC
modifications: 5mC at position 12 of top strand only
Consider B2, for which the binding result in series [2] is “no binding”.

B3: m5C/A mismatch cassette (dsDNA)
DNA 1: GCCTTCAGCGCCGGCGGATCCAGT
DNA 2: ACTGGATCCGCCAGCGCTGAAGGC
modifications: 5mC at position 12 of top strand only
For B3, the binding result in series [3] is recorded as “no binding”.

B4: Cm5CGG cassette (single methylated HpaII site) (dsDNA)
DNA 1: GCCTTCAGCGCCGGCGGATCCAGT
DNA 2: ACTGGATCCGCCGGCGCTGAAGGC
modifications: 5mC at position 12 of both strands
Regarding B4, the binding result in series [4] is on record as “binds”.

B5: hemimethylated Cm5CGG cassette (m5C/G) (dsDNA)
DNA 1: GCCTTCAGCGCCGGCGGATCCAGT
DNA 2: ACTGGATCCGCCGGCGCTGAAGGC
modifications: 5mC at position 12 of top strand only
As for B5, in series [5], the binding result is listed as “binds”.

B6: m5C/U mismatch cassette (dsDNA)
DNA 1: GCCTTCAGCGCCGGCGGATCCAGT
DNA 2: ACTGGATCCGCCUGCGCTGAAGGC
modifications: 5mC at position 12 of top strand only; U in bottom strand opposite m5C
Consider B6, for which the binding result in series [6] is “no binding”.

B7: m5CGT cassette (dsDNA)
DNA 1: CCCTCTGACGTAGGAGGCTCCTGC
DNA 2: GCAGGAGCCTCCTACGTCAGAGGG
modifications: 5mC at CpG (M.SssI), top 9, bottom 15
B7: in [1], the binding result is listed as “no binding”.

B8: Tm5CGA cassette (dsDNA)
DNA 1: CCCTCTGTCGAAGGAGGCTCCTGC
DNA 2: GCAGGAGCCTCCTTCGACAGAGGG
modifications: 5mC at CpG (M.SssI), top 9, bottom 15
With B8, in series [7], the binding result is listed as “binds”.

B9: m5C/C mismatch cassette (dsDNA)
DNA 1: GCCTTCAGCGCCGGCGGATCCAGT
DNA 2: ACTGGATCCGCCCGCGCTGAAGGC
modifications: 5mC at position 12 of top strand only
Turning to B9, the binding result in series [8] was “no binding”.

B10: Am5CGG cassette (dsDNA)
DNA 1: CCCTCTGACGGAGGAGGCTCCTGC
DNA 2: GCAGGAGCCTCCTCCGTCAGAGGG
modifications: 5mC at CpG (M.SssI), top 9, bottom 15
In the case of B10, in [1], the binding result is on record as “binds”.

B11: m5CGC cassette (dsDNA)
DNA 1: CCCTCTGACGCAGGAGGCTCCTGC
DNA 2: GCAGGAGCCTCCTGCGTCAGAGGG
modifications: 5mC at CpG (M.SssI), top 9, bottom 15
For B11, in [1], the binding result was “no binding”.

B12: Gm5CGA cassette (dsDNA)
DNA 1: CCCTCTGGCGAAGGAGGCTCCTGC
DNA 2: GCAGGAGCCTCCTTCGCCAGAGGG
modifications: 5mC at CpG (M.SssI), top 9, bottom 15
For B12, in [1], the binding result is “binds”.

B13: Cm5CGA cassette (dsDNA)
DNA 1: CCCTCTGCCGAAGGAGGCTCCTGC
DNA 2: GCAGGAGCCTCCTTCGGCAGAGGG
modifications: 5mC at CpG (M.SssI), top 9, bottom 15
Turning to B13, in series [7], the binding result is recorded as “binds”.

B14: Am5CGA cassette (dsDNA)
DNA 1: CCCTCTGACGAAGGAGGCTCCTGC
DNA 2: GCAGGAGCCTCCTTCGTCAGAGGG
modifications: 5mC at CpG (M.SssI), top 9, bottom 15
For B14, in series [1], the binding result is reported as “binds”.

B15: Cm5CGG cassette (M.SssI) (dsDNA)
DNA 1: CCCTCTGCCGGAGGAGGATCCTGC
DNA 2: GCAGGATCCTCCTCCGGCAGAGGG
modifications: 5mC at CpG (M.SssI), top 9, bottom 15
Turning to B15, in series [7], the binding result is recorded as “binds”.

B16: Tm5CGG cassette (dsDNA)
DNA 1: CCCTCTGTCGGAGGAGGCTCCTGC
DNA 2: GCAGGAGCCTCCTCCGACAGAGGG
modifications: 5mC at CpG (M.SssI), top 9, bottom 15
For the molecule B16, the binding result in series [7] is on record as “binds”.

B17: three m5CpG cassette (dsDNA)
DNA 1: GCCTTCAGCGCCGGCGGATCCAGT
DNA 2: ACTGGATCCGCCGGCGCTGAAGGC
modifications: 5mC at positions 9, 12, 15 of both strands
B17: the binding result in [9] was “binds”.
